According to the supplement of paper PMC7877785:
± gives the uncertainty stated by the source.

Experiment: self-splicing fitness, log relative to wild type (ln ratio); higher = more splicing; Tetrahymena group I intron in knt gene, E. coli kanamycin selection, DiMSum; sequences stand for … in CUCUCU…GGAGGGAAAAGUUAUCAGGCAUGCACCUGGUAGCUAGUCUUUAAACCAAUAGAUUGCAUCGGUUUAAAAGGCAAGACCGUCAAAUUGCGGGAAAGGGGUCAACAGCCGUUCAGUACCAAGUCUCAGGGGAAACUUUGAGAUGGCCUUGCAAAGGGUAUGGUAAUAAGCUGACGGACAUGGUCCUAACCACGCAGCCAAGUCCUAAGUCAACAGAUCUUCUGUUGAUAUGGAUGCAGUUCACAGACUAAAUGUCGGUCGGGGAAGAUGUAUUCUUCUCAUAAGAUAUAGUCGGACCUCUCCUUAAUGGGAGCUAGCGGAUGAAGUGAUGCAACACUGGAGCCGCUGGGAACUAAUUUGUAUGCGAAAGUAUAUUGAUUAGUUUUGGAGUACUCGUGGUCG
Outline: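 The eight P1ex-region nucleotides of an intron in the knt kanamycin-resistance gene on pET-22b(+) were all randomised and the library put into E. coli BL21(DE3). Six replicate transformations were grown overnight at 37°C or 30°C on LB agar with or without 25 μg/mL kanamycin, together with 100 μg/mL carbenicillin, 50 μM IPTG and 0.2% rhamnose. Colonies were pooled and amplicon-sequenced on an Illumina HiSeq 2500. Fitness from DiMSum is the error-weighted combination of wild-type-normalised replicate fold changes, kanamycin over none.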

Row | Sequence | self-splicing fitness (ln) (30 °C) | self-splicing fitness (ln) (37 °C)
1 | UCGUAGCAAUAUUACGGCUA | -0.508 ± 0.32 | -1.81 ± 0.23
2 | UCGUAGCAAUAUUACGGGAA | -1.71 ± 0.2 | -1.06 ± 0.16
3 | UCGUAGCAAUAUUACGGGUC | -3.02 ± 0.26 | -4.36 ± 0.46
4 | UCGUAGCAAUAUUACGGUGC | -3.62 ± 0.33 | -3.15 ± 0.47
5 | UCGUAGCAAUAUUACGGUGG | -2.84 ± 0.098 | -1.31 ± 0.086
6 | UCGUAGCAAUAUUACGUCUC | -2.93 ± 0.19 | -2.29 ± 0.22
7 | UCGUAGCAAUAUUACGUUAU | -4.46 ± 0.42 | -2.64 ± 0.34
8 | UCGUAGCAAUAUUACGUUGU | -4.46 ± 0.46 | -2.43 ± 0.23
9 | UCUAAGCAAUAUUACGAAAA | – | -1.34 ± 0.29
10 | UCUAAGCAAUAUUACGACCG | -0.676 ± 0.14 | -0.00302 ± 0.22
11 | UCUAAGCAAUAUUACGAGCA | -1.38 ± 0.15 | -0.145 ± 0.15
12 | UCUAAGCAAUAUUACGAGGC | -2.85 ± 0.31 | -2.58 ± 0.38
13 | UCUAAGCAAUAUUACGAUAC | -2.38 ± 0.25 | -2.95 ± 0.47
14 | UCUAAGCAAUAUUACGAUUA | -2.61 ± 0.33 | -1.94 ± 0.34
15 | UCUAAGCAAUAUUACGCAAG | -2.85 ± 0.4 | -1.86 ± 0.34
16 | UCUAAGCAAUAUUACGCACA | -2.26 ± 0.39 | -0.556 ± 0.47
17 | UCUAAGCAAUAUUACGCAGU | -1.86 ± 0.16 | -1.24 ± 0.15
18 | UCUAAGCAAUAUUACGCCCU | -2.09 ± 0.24 | -1.78 ± 0.25
19 | UCUAAGCAAUAUUACGCCGA | -1.12 ± 0.19 | -0.156 ± 0.2
20 | UCUAAGCAAUAUUACGCGGC | – | -1.59 ± 0.36
21 | UCUAAGCAAUAUUACGCUGU | -2.47 ± 0.18 | -2.59 ± 0.21
22 | UCUAAGCAAUAUUACGCUUA | -2.29 ± 0.21 | -1.75 ± 0.29
23 | UCUAAGCAAUAUUACGGACG | -3.16 ± 0.22 | -1.95 ± 0.28
24 | UCUAAGCAAUAUUACGGAUA | -2.97 ± 0.22 | -1.77 ± 0.19
25 | UCUAAGCAAUAUUACGGGCA | -1.42 ± 0.12 | -0.441 ± 0.12

Row | Sequence | self-splicing fitness (ln) (30 °C) | self-splicing fitness (ln) (37 °C)
26 | UCUAAGCAAUAUUACGGGUG | -1.54 ± 0.076 | -0.964 ± 0.099
27 | UCUAAGCAAUAUUACGUCGG | 0.0423 ± 0.067 | 0.627 ± 0.078
28 | UCUAAGCAAUAUUACGUGGC | -3.09 ± 0.19 | -3.11 ± 0.34
29 | UCUAAGCAAUAUUACGUUAG | -2.19 ± 0.1 | -1.04 ± 0.1
30 | UCUCAGCAAUAUUACGACAA | -1.98 ± 0.25 | -1.31 ± 0.27
31 | UCUCAGCAAUAUUACGAGAG | -2.76 ± 0.11 | -1.46 ± 0.11
32 | UCUCAGCAAUAUUACGAGUG | -0.746 ± 0.068 | 0.292 ± 0.086
33 | UCUCAGCAAUAUUACGAUAA | -2.15 ± 0.21 | -1.33 ± 0.21
34 | UCUCAGCAAUAUUACGAUAU | -2.12 ± 0.14 | -1.75 ± 0.18
35 | UCUCAGCAAUAUUACGAUCC | – | -1.66 ± 0.37
36 | UCUCAGCAAUAUUACGAUGG | -0.935 ± 0.11 | -1 ± 0.14
37 | UCUCAGCAAUAUUACGCACG | -2.2 ± 0.2 | -2.06 ± 0.28
38 | UCUCAGCAAUAUUACGCACU | -0.801 ± 0.13 | -0.465 ± 0.14
39 | UCUCAGCAAUAUUACGCCAG | -1.94 ± 0.25 | -1.2 ± 0.34
40 | UCUCAGCAAUAUUACGCCCA | -0.778 ± 0.12 | -1.88 ± 0.18
41 | UCUCAGCAAUAUUACGCGCU | – | -3.12 ± 0.43
42 | UCUCAGCAAUAUUACGCGGG | -1.7 ± 0.14 | -1.4 ± 0.15
43 | UCUCAGCAAUAUUACGCGUG | -4.26 ± 0.24 | -3.11 ± 0.21
44 | UCUCAGCAAUAUUACGCUAU | -3.62 ± 0.43 | -2.37 ± 0.23
45 | UCUCAGCAAUAUUACGCUCG | -3.93 ± 0.25 | -2 ± 0.19
46 | UCUCAGCAAUAUUACGCUGG | -3.25 ± 0.2 | -2.67 ± 0.2
47 | UCUCAGCAAUAUUACGGAAA | -1.45 ± 0.14 | -0.892 ± 0.14
48 | UCUCAGCAAUAUUACGGACA | -0.71 ± 0.099 | -0.369 ± 0.1
49 | UCUCAGCAAUAUUACGGAUG | -2.78 ± 0.12 | -0.753 ± 0.13
50 | UCUCAGCAAUAUUACGGCAG | -3.36 ± 0.31 | -0.98 ± 0.19

Row | Sequence | self-splicing fitness (ln) (30 °C) | self-splicing fitness (ln) (37 °C)
51 | UCUCAGCAAUAUUACGGCGC | -2.56 ± 0.22 | -1.78 ± 0.31
52 | UCUCAGCAAUAUUACGGGUG | -0.627 ± 0.072 | -0.219 ± 0.083
53 | UCUCAGCAAUAUUACGGUCA | 0.115 ± 0.061 | 0.0673 ± 0.075
54 | UCUCAGCAAUAUUACGGUGG | -2.24 ± 0.14 | -2.31 ± 0.18
55 | UCUCAGCAAUAUUACGUAAC | -2.74 ± 0.21 | -2.2 ± 0.28
56 | UCUCAGCAAUAUUACGUAGU | -1.71 ± 0.1 | -0.822 ± 0.11
57 | UCUCAGCAAUAUUACGUAUG | -2.86 ± 0.42 | -2.79 ± 0.38
58 | UCUCAGCAAUAUUACGUUAG | -3.98 ± 0.4 | -2.34 ± 0.27
59 | UCUGAGCAAUAUUACGAAAG | -2.21 ± 0.27 | -1.71 ± 0.27
60 | UCUGAGCAAUAUUACGACCG | -2.92 ± 0.4 | -2.39 ± 0.46
61 | UCUGAGCAAUAUUACGACGG | -1.18 ± 0.11 | -0.451 ± 0.12
62 | UCUGAGCAAUAUUACGCAUC | – | -2.47 ± 0.49
63 | UCUGAGCAAUAUUACGCCUA | – | -0.697 ± 0.44
64 | UCUGAGCAAUAUUACGCGGG | -3.91 ± 0.26 | -2.29 ± 0.2
65 | UCUGAGCAAUAUUACGGACU | -2.57 ± 0.39 | -1.21 ± 0.41
66 | UCUGAGCAAUAUUACGGAGA | -2.35 ± 0.17 | -0.963 ± 0.14
67 | UCUGAGCAAUAUUACGGAGC | -2.77 ± 0.21 | -2.92 ± 0.2
68 | UCUGAGCAAUAUUACGGCAC | -4.07 ± 0.47 | -1.06 ± 0.28
69 | UCUGAGCAAUAUUACGGCGG | -0.492 ± 0.094 | -0.249 ± 0.14
70 | UCUGAGCAAUAUUACGGUAC | -3.24 ± 0.47 | –
71 | UCUGAGCAAUAUUACGUGAU | -3.42 ± 0.23 | -1.42 ± 0.44
72 | UCUGAGCAAUAUUACGUGCU | -3.52 ± 0.4 | –
73 | UCUGAGCAAUAUUACGUUAC | -3.38 ± 0.2 | -2.33 ± 0.22
74 | UCUGAGCAAUAUUACGUUAU | -3.6 ± 0.31 | -3.68 ± 0.42
75 | UCUGAGCAAUAUUACGUUCU | -3.98 ± 0.3 | -2.89 ± 0.31

Row | Sequence | self-splicing fitness (ln) (30 °C) | self-splicing fitness (ln) (37 °C)
76 | UCUGAGCAAUAUUACGUUGG | -0.956 ± 0.13 | -0.905 ± 0.15
77 | UCUUAGCAAUAUUACGAAAU | -3.48 ± 0.33 | -3.09 ± 0.35
78 | UCUUAGCAAUAUUACGAAUC | -3.32 ± 0.5 | –
79 | UCUUAGCAAUAUUACGAGAG | -2.35 ± 0.26 | -0.861 ± 0.16
80 | UCUUAGCAAUAUUACGAUAU | – | -1.78 ± 0.38
81 | UCUUAGCAAUAUUACGAUCG | -1.44 ± 0.19 | -0.631 ± 0.19
82 | UCUUAGCAAUAUUACGAUCU | -2.59 ± 0.29 | -2.04 ± 0.29
83 | UCUUAGCAAUAUUACGAUGA | -0.467 ± 0.082 | 0.223 ± 0.084
84 | UCUUAGCAAUAUUACGCACC | – | -1.21 ± 0.37
85 | UCUUAGCAAUAUUACGCAGU | -2.76 ± 0.22 | -1.05 ± 0.13
86 | UCUUAGCAAUAUUACGCAUG | -1.98 ± 0.18 | -0.995 ± 0.19
87 | UCUUAGCAAUAUUACGCCGG | -1.85 ± 0.26 | 0.459 ± 0.31
88 | UCUUAGCAAUAUUACGCGGC | -2.44 ± 0.3 | -0.722 ± 0.36
89 | UCUUAGCAAUAUUACGCUUC | -4.09 ± 0.35 | -2.41 ± 0.19
90 | UCUUAGCAAUAUUACGGAAG | – | -1.81 ± 0.41
91 | UCUUAGCAAUAUUACGGAGA | – | -2.76 ± 0.38
92 | UCUUAGCAAUAUUACGGCAG | -3.36 ± 0.26 | -2.23 ± 0.3
93 | UCUUAGCAAUAUUACGGCAU | -3.42 ± 0.33 | -1.75 ± 0.23
94 | UCUUAGCAAUAUUACGGCCG | -2.11 ± 0.37 | -0.349 ± 0.33
95 | UCUUAGCAAUAUUACGGGAA | – | -0.457 ± 0.3
96 | UCUUAGCAAUAUUACGGUAG | – | -2.11 ± 0.41
97 | UCUUAGCAAUAUUACGUCCA | -1.92 ± 0.13 | -1.93 ± 0.18
98 | UGAAAGCAAUAUUACGAACG | 0.0634 ± 0.17 | 0.684 ± 0.2
99 | UGAAAGCAAUAUUACGACGA | -0.661 ± 0.12 | -0.101 ± 0.12
100 | UGAAAGCAAUAUUACGAGUA | -1.45 ± 0.1 | -0.821 ± 0.092
